Reference: publication PMC7483680 (Experimental parasitology, 2020)

Molecular target: T1, recombinant GST-tagged wild-type Toxoplasma gondii GCN5b bromodomain (BRD) (Toxoplasma gondii, UniProt S8F3V2 877-986)
T1 sequence (looked up): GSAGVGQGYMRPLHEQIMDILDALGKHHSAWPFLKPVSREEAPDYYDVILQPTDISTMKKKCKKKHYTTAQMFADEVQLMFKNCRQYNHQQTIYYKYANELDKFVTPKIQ
Assay: pull-down

SGRGKGGKGLGKGGAKRH (peptide, UniProt P62805 2-19, looked up, acetyl-lysine at K5, K8, K12 and K16; biotin (position not given)) [biotinylated tetra-acetylated histone H4 peptide (K5/8/12/16), residues 1-18 of human histone H4]: binds.
